The assay deals with activin-like kinase receptor 3 (ALK3) (human) (UniProt P36894). As to the kind of experiment: cell-based or functional assay.
activin-like kinase receptor 3 (ALK3) (human), sequence (P36894 24-532): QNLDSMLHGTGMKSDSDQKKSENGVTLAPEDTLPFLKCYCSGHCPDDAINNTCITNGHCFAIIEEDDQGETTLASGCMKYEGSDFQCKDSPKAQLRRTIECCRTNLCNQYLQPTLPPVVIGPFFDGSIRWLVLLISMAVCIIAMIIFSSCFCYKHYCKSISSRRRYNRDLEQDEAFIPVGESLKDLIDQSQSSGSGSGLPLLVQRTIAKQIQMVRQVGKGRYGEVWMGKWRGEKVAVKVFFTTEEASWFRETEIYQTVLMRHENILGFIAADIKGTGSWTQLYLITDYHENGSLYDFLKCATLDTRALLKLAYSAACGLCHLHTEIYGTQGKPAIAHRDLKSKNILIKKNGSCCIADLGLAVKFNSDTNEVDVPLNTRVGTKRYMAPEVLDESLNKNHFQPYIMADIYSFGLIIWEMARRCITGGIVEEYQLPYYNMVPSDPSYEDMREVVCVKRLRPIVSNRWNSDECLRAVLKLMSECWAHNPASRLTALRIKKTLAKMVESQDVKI

Bone morphogenetic protein 7 (BMP-7), sequence (P18075 293-431 limits assumed): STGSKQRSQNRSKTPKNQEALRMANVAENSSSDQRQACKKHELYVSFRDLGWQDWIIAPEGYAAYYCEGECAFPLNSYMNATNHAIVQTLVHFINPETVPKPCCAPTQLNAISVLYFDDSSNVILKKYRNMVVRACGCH

For “Bone morphogenetic protein 4 (BMP-4) (from UniProt P12644 293-408) (ligand)”, the C-peptide production on hNEPT, fold vs. t=0 (n=6) was 198 fold.

In the case of “Bone morphogenetic protein 7 (BMP-7) (from UniProt P18075 293-431) (ligand)”, the BMP-7-mediated induction of C-peptide compared to t=0 (n=4), BMP-7 alone came out at 314 fold; the BMP-7-mediated induction of C-peptide compared to t=0 (n=4), in the presence of dorsomorphin (inhibitor of SMAD1/5/8 phosphorylation) came to 108 fold; the C-peptide induction on hNEPT, fold vs. t=0 (n=4, comparison with THR-123) worked out at 261 fold; the C-peptide production on hNEPT, fold vs. t=0 (n=6, comparison with BMP-4) is 156 fold. The same substance displayed an insulin expression by qRT-PCR in ALK3+-sorted cells vs. non-BMP-7 treated controls of 1000 fold.

Substance THR-123 (peptide) showed a C-peptide induction on hNEPT, fold vs. t=0 (n=4) of 318 fold.

For the origin of these results see US20180155692A1.
